According to publication PMC10350915, “Development of a New Class of CXCR4-Targeting Radioligands Based on the Endogenous Antagonist EPI-X4 for Oncological Applications” (Journal of Medicinal Chemistry, 2023):
Where two headings read alike, the source gives them in different places. Square brackets hold non-standard residues; d marks the D form. Side chains are listed from the residue outwards. Ends that are not written are not given here. Peptide text beside a SMILES is read from it. * marks the point of attachment. DOTA = O=C(O)CN1CCN(CC(=O)O)CCN(CC(=O)*)CCN(CC(=O)O)CC1; Palmitoyl = CCCCCCCCCCCCCCCC(=O)*

B1: ligand-1 (peptide)
peptide: ILRWSRKLPCVSK(DOTA)
notes: source: synthetic peptide (Fmoc solid phase synthesis, RP-HPLC purified)
B2: ^natLu-6 (peptide)
peptide: [dL]LRWSRKLPCVSK(DOTA)
modifications: also: DOTA complexed with natLu
notes: natLu and 177Lu complexes are written as one molecule; they differ only in the isotope; also called ^177Lu-6; Lu complex of ligand-6 (monomer); source: synthetic peptide, complexed with natLuCl3, monomer isolated by semipreparative RP-HPLC; ^177Lu form labelled with 177LuCl3 in the presence of DTT
B3: ^natLu-2 (peptide)
peptide: ILRWSRKLPSVSK(DOTA)
modifications: also: natLu complexed by DOTA
notes: natLu and 177Lu complexes are written as one molecule; they differ only in the isotope; also called ^177Lu-2; Lu complex of ligand-2; source: synthetic peptide, complexed with natLuCl3; ^177Lu form labelled with 177LuCl3
B4: ligand-6 (peptide)
peptide: [dL]LRWSRKLPCVSK(DOTA)
notes: as ligand-1 with isoleucine 1 substituted by D-leucine; source: synthetic peptide (Fmoc solid phase synthesis, RP-HPLC purified)
B5: ligand-2 (peptide)
peptide: ILRWSRKLPSVSK(DOTA)
notes: as ligand-1 with serine instead of cysteine at position 10; source: synthetic peptide (Fmoc solid phase synthesis, RP-HPLC purified)
B6: ^natLu-1 (peptide)
peptide: ILRWSRKLPCVSK(DOTA)
modifications: also: natLu complexed by DOTA
notes: natLu and 177Lu complexes are written as one molecule; they differ only in the isotope; also called ^177Lu-1; Lu complex of ligand-1 (monomer); source: synthetic peptide, complexed with natLuCl3, monomer isolated by semipreparative RP-HPLC; ^177Lu form labelled with 177LuCl3 in the presence of DTT
B7: ligand-7 (peptide)
peptide: [dI]LRWSRKK(DOTA)-NH2
modifications: N-terminus assumed
SMILES: CC[C@@H](C)[C@@H](N)C(=O)N[C@@H](CC(C)C)C(=O)N[C@@H](CCCNC(=N)N)C(=O)N[C@@H](Cc1c[nH]c2ccccc12)C(=O)N[C@@H](CO)C(=O)N[C@@H](CCCNC(=N)N)C(=O)N[C@@H](CCCCN)C(=O)N[C@@H](CCCCNC(=O)CN1CCN(CC(=O)O)CCN(CC(=O)O)CCN(CC(=O)O)CC1)C(N)=O
notes: as ligand-4 with isoleucine 1 substituted by D-isoleucine; also called DOTA conjugate of JM#173; source: synthetic peptide (Fmoc solid phase synthesis, RP-HPLC purified)
B8: ligand-4 (peptide)
peptide: ILRWSRKK(DOTA)-NH2
notes: truncated JM#21 derivative with added C-terminal K(DOTA)-NH2; source: synthetic peptide (Fmoc solid phase synthesis, RP-HPLC purified)
B9: ^natLu-9 (peptide)
peptide: [dL]LRWSRK([Glu-Palmitoyl])K(DOTA)-NH2
modifications: also: natLu complexed by DOTA
notes: natLu and 177Lu complexes are written as one molecule; they differ only in the isotope; also called ^177Lu-9; Lu complex of ligand-9; source: synthetic peptide, complexed with natLuCl3; ^177Lu form labelled with 177LuCl3
B10: ligand-9 (peptide)
peptide: [dL]LRWSRK([Glu-Palmitoyl])K(DOTA)-NH2
notes: main chain of 8 residues; source: synthetic peptide (Fmoc solid phase synthesis, RP-HPLC purified)
B11: EPI-X4 (endogenous peptide inhibitor of CXCR4) (peptide)
peptide: LVRYTKKVPQVSTPTL
notes: 16-mer fragment of human serum albumin; also called wild-type EPI-X4; source: synthetic peptide
B12: ligand-5 (peptide)
peptide: ILRWSRK(DOTA)-NH2
modifications: N-terminus assumed
SMILES: CC[C@H](C)[C@H](N)C(=O)N[C@@H](CC(C)C)C(=O)N[C@@H](CCCNC(=N)N)C(=O)N[C@@H](Cc1c[nH]c2ccccc12)C(=O)N[C@@H](CO)C(=O)N[C@@H](CCCNC(=N)N)C(=O)N[C@@H](CCCCNC(=O)CN1CCN(CC(=O)O)CCN(CC(=O)O)CCN(CC(=O)O)CC1)C(N)=O
notes: shortest truncated JM#21 derivative; DOTA on its own K7; source: synthetic peptide (Fmoc solid phase synthesis, RP-HPLC purified)
B13: ^natLu-5 (peptide)
peptide: ILRWSRK(DOTA)-NH2
modifications: also: natLu complexed by DOTA
notes: natLu and 177Lu complexes are written as one molecule; they differ only in the isotope; also called ^177Lu-5; Lu complex of ligand-5; source: synthetic peptide, complexed with natLuCl3; ^177Lu form labelled with 177LuCl3
B14: ^natLu-7 (peptide)
peptide: [dI]LRWSRKK(DOTA)-NH2
modifications: also: natLu complexed by DOTA
notes: natLu and 177Lu complexes are written as one molecule; they differ only in the isotope; also called ^177Lu-7; Lu complex of ligand-7; source: synthetic peptide, complexed with natLuCl3; ^177Lu form labelled with 177LuCl3
B15: ligand-3 (peptide)
peptide: ILRWSRKLPK(DOTA)-NH2
modifications: N-terminus assumed
SMILES: CC[C@H](C)[C@H](N)C(=O)N[C@@H](CC(C)C)C(=O)N[C@@H](CCCNC(=N)N)C(=O)N[C@@H](Cc1c[nH]c2ccccc12)C(=O)N[C@@H](CO)C(=O)N[C@@H](CCCNC(=N)N)C(=O)N[C@@H](CCCCN)C(=O)N[C@@H](CC(C)C)C(=O)N1CCC[C@H]1C(=O)N[C@@H](CCCCNC(=O)CN1CCN(CC(=O)O)CCN(CC(=O)O)CCN(CC(=O)O)CC1)C(N)=O
notes: as for B8
B16: EPI-X4 JM#21 (peptide)
peptide: ILRWSRKLPCVS
notes: activity-optimised, truncated 12-mer derivative of EPI-X4 (rational design); source: synthetic peptide

Assays:
[1] = assay type: in vitro ADME, human
Method: Representative radiochromatograms are provided in Figure S25 for ^177Lu-1, ^177Lu-2, and ^177Lu-7. This included ^177Lu-9 despite its fatty acid chain.
(§1) Figure 3 Stability of the ^177Lu ligands in human plasma at 37 °C, expressed as % of intact radioligand over time, assessed by radio-HPLC. The % of plasma protein binding (PPB) after 60 min incubation is provided in parenthesis and it is expressed as the % of radioligand in the protein fraction (pellet) versus the total activity in the plasma. TEXT PRINTED IN THE PICTURE: ^177Lu-1: PPB: 35% | ^177Lu-2: PPB: 22% | ^177Lu-5: PPB: 42% | ^177Lu-6: PPB: 38% | ^177Lu-7: PPB: 39% | ^177Lu-9: PPB: 37%
To 1 mL of fresh human plasma, previously equilibrated at 37 °C, 500 pmol (8–10 MBq) of each ^177Lu-labeled ligand was added. The mixture was incubated at 37 °C for different time points (0, 15, 30, 60, and 120 min). At each time point, a 100 μL aliquot was removed and treated with 1.5 excess (v/v) of acetonitrile, to precipitate plasma proteins, followed by centrifugation for 5 min at 3500 rpm. The supernatant was collected and the process of protein precipitation was repeated. Afterward, 100 μL from the supernatant was taken, diluted with water at a ratio of 1:10 (v/v), and injected into radio-HPLC. The radioligand (in)stability was assessed by quantifying the percentage of intact radioligand over time.

[2] = assay type: in vitro ADME; details: human; for fraction unbound at 60 min: plasma, plasma protein binding (PPB); for plasma protein binding (PPB): 60 min
Method: as §1
For the determination of plasma protein binding (PPB), 100 μL from the plasma incubated with the ^177Lu ligand was removed and measured in a γ-counter (total radioactivity). Protein precipitation and separation followed, as described above. The supernatant and the protein pellet were then measured in a γ-counter. The percentage of plasma protein binding was calculated as the ratio between the protein-bound radioactivity and the total radioactivity in the plasma.

[3] = target: T1, C-X-C motif chemokine receptor 4 (CXCR4) on Jurkat cells (human (endogenous in Jurkat), UniProt P61073 1-352); experiment: flow cytometry on cells; competition with APC-labelled anti-CXCR4 antibody clone 12G5 at a fixed concentration close to its KD; Jurkat cells, 50,000 cells/well; ligands serially diluted in PBS; 4 °C, 2 h; PBS with 1% FBS; details: one partner purified
T1 construct: CXCR4 naturally expressed at high levels on Jurkat cells (human T lymphoblasts); source: endogenous, on Jurkat cells (clone E6-1, ATCC)

[4] = target: T2, C-X-C motif chemokine receptor 4 (CXCR4) on Ghost-CXCR4 cells (UniProt P61073 1-352); experiment: flow cytometry on cells; competition with APC-labelled anti-CXCR4 antibody clone 12G5 at a fixed concentration close to its KD; Ghost-CXCR4 cells, 50,000 cells/well; ligands serially diluted in PBS; 4 °C, 2 h; PBS with 1% FBS; details: one partner purified
T2 construct: CXCR4 stably expressed in Ghost cells (NIH HIV Reagent Program); source: Ghost cells (human osteosarcoma cell line) stably transfected with CXCR4, also expressing CD4; on cells

[5] = target: T2, C-X-C motif chemokine receptor 4 …; experiment: radioligand binding; cellular uptake (surface-bound and internalised) of 177Lu ligands (1 nM) in Ghost-CXCR4 cells, 37 °C, 15-60 min, DMEM with 5% BSA; nonspecific uptake with 100,000-fold excess of AMD3100 subtracted; details: one partner purified
[6] = target: T3, C-X-C motif chemokine receptor 4 (CXCR4) on Jurkat cells (human (endogenous in Jurkat), UniProt P61073 1-352)
T3 chain: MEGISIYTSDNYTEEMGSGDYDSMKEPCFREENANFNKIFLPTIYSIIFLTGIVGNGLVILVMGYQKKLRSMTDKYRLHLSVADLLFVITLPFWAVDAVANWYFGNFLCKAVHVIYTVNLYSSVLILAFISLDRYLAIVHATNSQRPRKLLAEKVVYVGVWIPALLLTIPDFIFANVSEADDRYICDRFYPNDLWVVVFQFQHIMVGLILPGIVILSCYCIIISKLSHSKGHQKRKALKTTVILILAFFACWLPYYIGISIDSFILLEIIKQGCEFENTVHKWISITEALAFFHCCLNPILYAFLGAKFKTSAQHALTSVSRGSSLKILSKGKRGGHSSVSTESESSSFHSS

Row | Molecule | time to complete degradation in human plasma [1] [min] | fraction unbound at 60 min [2] | plasma protein binding (PPB) [2] [%] | IC50 [3] [nM] | IC50 [4] [nM] | cellular uptake (% of applied activity) [5] | IC50 [6] [nM]
1 | CC[C@H](C)[C@H](N)C(=O)N[C@@H](CC(C)C)C(=O)N[C@@H](CCCNC(=N)N)C(=O)N[C@@H](Cc1c[nH]c2ccccc12)C(=O)N[C@@H](CO)C(=O)N[C@@H](CCCNC(=N)N)C(=O)N[C@@H](CCCCN)C(=O)N[C@@H](CC(C)C)C(=O)N1CCC[C@H]1C(=O)N[C@@H](CS)C(=O)N[C@H](C(=O)N[C@@H](CO)C(=O)N[C@@H](CCCCNC(=O)CN1CCN(CC(=O)O)CCN(CC(=O)O)CCN(CC(=O)O)CC1)C(=O)O)C(C)C [^177Lu-1, metal not drawn] | ≤ 15 | 0.65 | – | – | – | – | –
2 | CC[C@H](C)[C@H](N)C(=O)N[C@@H](CC(C)C)C(=O)N[C@@H](CCCNC(=N)N)C(=O)N[C@@H](Cc1c[nH]c2ccccc12)C(=O)N[C@@H](CO)C(=O)N[C@@H](CCCNC(=N)N)C(=O)N[C@@H](CCCCNC(=O)CN1CCN(CC(=O)O)CCN(CC(=O)O)CCN(CC(=O)O)CC1)C(N)=O [^177Lu-5, metal not drawn] (H-ILRWSRK(DOTA)-NH2; N-terminus assumed) | ≤ 15 | 0.58 | ~40 | – | – | – | –
3 | CC(C)C[C@@H](N)C(=O)N[C@@H](CC(C)C)C(=O)N[C@@H](CCCNC(=N)N)C(=O)N[C@@H](Cc1c[nH]c2ccccc12)C(=O)N[C@@H](CO)C(=O)N[C@@H](CCCNC(=N)N)C(=O)N[C@@H](CCCCN)C(=O)N[C@@H](CC(C)C)C(=O)N1CCC[C@H]1C(=O)N[C@@H](CS)C(=O)N[C@H](C(=O)N[C@@H](CO)C(=O)N[C@@H](CCCCNC(=O)CN1CCN(CC(=O)O)CCN(CC(=O)O)CCN(CC(=O)O)CC1)C(=O)O)C(C)C [^177Lu-6, metal not drawn] | ≤ 15 | 0.62 | ~40 | – | – | – | –
4 | B1 | – | – | – | 303 | 254 | – | –
5 | B2 | – | – | – | 465 | 1010 | ~1 % of applied activity | –
6 | B3 | – | – | – | 49 | – | ~1 % of applied activity | 65
7 | B4 | – | – | – | 428 | 747 | – | –
8 | B5 | – | – | – | 172 | 258 | – | –
9 | B6 | – | – | – | 208 | 278 | ~1 % of applied activity | 15
10 | B7 | – | – | – | 433 | 570 | – | –
11 | B8 | – | – | – | 161 | 295 | – | –
12 | B9 | – | – | – | 4 | 6 | – | 20
13 | B10 | – | – | – | 13 | 6 | – | –
14 | B11 | – | – | – | 1780 | 4540 | – | –
15 | B12 | – | – | – | 120 | 424 | – | –
16 | B13 | – | – | – | 113 | 197 | ~1 % of applied activity | 104
17 | IVRWSKK(Palmitoyl)VPCSK(DOTA) (also: natLu complexed by DOTA) [^natLu-8] | – | – | – | 18 | 30 | – | –
18 | B14 | – | – | – | 435 | 481 | – | 272
19 | B15 | – | – | – | 45 | 98 | – | –
20 | B16 | – | – | – | 136 | 183 | – | –
